Laboratory results taken from the supplement of paper PMC9112550, “Optimization of the antimicrobial peptide Bac7 by deep mutational scanning” (BMC Biology, 2022).

Test system: Escherichia coli TOP10
Experiment: shrunken log2 fold change of peptide-encoding DNA abundance (4.5 h post-induction vs induction); higher = less antimicrobial activity (less host growth inhibition)
Details: time post-induction: 4.5 h; library: site-saturation at positions 5, 18, 19, 20
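Note: peptides expressed intracellularly from a pBAD plasmid library in pooled LB shake-flask culture, induced with 0.3% L-arabinose, DNA abundance read by NGS, three biological replicates, DESeq2 with apeglm shrinkage.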

Sequence | shrunken log2 fold change
RRIRCRPPRLPRPRPRPHSQPRP | -0.0293
RRIRERPPRLPRPRPRPAHVPRP | -0.0768
RRIRFRPPRLPRPRPRPYWRPRP | -0.0769
RRIRYRPPRLPRPRPRPQSDPRP | -0.251
RRIRYRPPRLPRPRPRPNWYPRP | -1.48
RRIRTRPPRLPRPRPRPCPQPRP | -0.312
RRIRIRPPRLPRPRPRPAHSPRP | -0.0596
RRIRARPPRLPRPRPRPLVDPRP | 0.498
RRIRSRPPRLPRPRPRPWDAPRP | 0.069
RRIRERPPRLPRPRPRPLLSPRP | -0.206
RRIRERPPRLPRPRPRPERCPRP | 0.125
RRIRLRPPRLPRPRPRPTGTPRP | 0.104
RRIRMRPPRLPRPRPRPFPHPRP | -0.0309
RRIRVRPPRLPRPRPRPDTKPRP | -0.26
RRIRWRPPRLPRPRPRPKEFPRP | -0.228
RRIRRRPPRLPRPRPRPSKTPRP | -0.0865
RRIRWRPPRLPRPRPRPAYPPRP | 0.00826
RRIRPRPPRLPRPRPRPVGHPRP | 0.0338
RRIRSRPPRLPRPRPRPDCYPRP | -0.374
RRIRKRPPRLPRPRPRPSVWPRP | 0.645
RRIRHRPPRLPRPRPRPKSFPRP | -0.0233
RRIRPRPPRLPRPRPRPNYQPRP | -0.293
RRIRARPPRLPRPRPRPCQDPRP | -0.163
RRIRERPPRLPRPRPRPNLAPRP | -0.194
RRIRMRPPRLPRPRPRPCNLPRP | -0.369

Sequence | shrunken log2 fold change
RRIRVRPPRLPRPRPRPIAKPRP | 0.391
RRIRGRPPRLPRPRPRPMVKPRP | 0.00813
RRIRARPPRLPRPRPRPSMYPRP | 0.0294
RRIRGRPPRLPRPRPRPFQNPRP | 0.31
RRIRGRPPRLPRPRPRPSIMPRP | 0.16
RRIRMRPPRLPRPRPRPWAWPRP | -0.0978
RRIRPRPPRLPRPRPRPAAFPRP | 0.207
RRIRNRPPRLPRPRPRPTSSPRP | 0.211
RRIRGRPPRLPRPRPRPPTQPRP | 0.727
RRIRTRPPRLPRPRPRPYDGPRP | -0.0303
RRIRLRPPRLPRPRPRPKNHPRP | -0.269
RRIRLRPPRLPRPRPRPPSFPRP | -0.244
RRIRTRPPRLPRPRPRPAEGPRP | 0.164
RRIRKRPPRLPRPRPRPFFQPRP | 0.346
RRIRRRPPRLPRPRPRPYDIPRP | -0.249
RRIRMRPPRLPRPRPRPTAIPRP | 0.072
RRIRGRPPRLPRPRPRPRKHPRP | 0.632
RRIRMRPPRLPRPRPRPYSPPRP | -0.199
RRIRERPPRLPRPRPRPIMSPRP | -0.38
RRIRTRPPRLPRPRPRPDRAPRP | -0.438
RRIRMRPPRLPRPRPRPTRLPRP | 1.19
RRIRLRPPRLPRPRPRPNWRPRP | 0.292
RRIRDRPPRLPRPRPRPPLDPRP | 0.652
RRIRRRPPRLPRPRPRPVLEPRP | 0.599
RRIRVRPPRLPRPRPRPCPDPRP | -0.0269

Sequence | shrunken log2 fold change
RRIRMRPPRLPRPRPRPHILPRP | 0.113
RRIRSRPPRLPRPRPRPEGDPRP | 0.203
RRIRHRPPRLPRPRPRPHVKPRP | -0.00471
RRIRPRPPRLPRPRPRPDDHPRP | -0.0314
RRIRDRPPRLPRPRPRPQRMPRP | -0.0312
RRIRHRPPRLPRPRPRPICIPRP | -0.577
RRIRHRPPRLPRPRPRPCETPRP | -0.332
RRIRHRPPRLPRPRPRPADMPRP | 0.0208
RRIRSRPPRLPRPRPRPHAHPRP | -0.32
RRIRTRPPRLPRPRPRPMCDPRP | 0.0157
RRIRFRPPRLPRPRPRPKLCPRP | -0.14
RRIRNRPPRLPRPRPRPDEIPRP | -0.043
RRIRWRPPRLPRPRPRPHQFPRP | -0.843
RRIRPRPPRLPRPRPRPDAIPRP | 0.148
RRIRCRPPRLPRPRPRPTLTPRP | -0.14
RRIRGRPPRLPRPRPRPTSYPRP | 0.105
RRIRLRPPRLPRPRPRPKIKPRP | -0.36
RRIRCRPPRLPRPRPRPRNYPRP | -0.094
RRIRWRPPRLPRPRPRPYGNPRP | -0.338
RRIRMRPPRLPRPRPRPCTYPRP | -0.00141
RRIRSRPPRLPRPRPRPTDAPRP | 0.236
RRIRERPPRLPRPRPRPFNWPRP | 0.00763
RRIRCRPPRLPRPRPRPMEAPRP | -0.0255
RRIRQRPPRLPRPRPRPAFQPRP | 0.0837
RRIRIRPPRLPRPRPRPFAVPRP | 0.0425

Sequence | shrunken log2 fold change
RRIRFRPPRLPRPRPRPALIPRP | -0.00983
RRIRSRPPRLPRPRPRPMRLPRP | 0.0162
RRIRLRPPRLPRPRPRPRYWPRP | -0.0087
RRIRHRPPRLPRPRPRPEHVPRP | 0.0342
RRIRTRPPRLPRPRPRPMNNPRP | -0.582
RRIRCRPPRLPRPRPRPCTDPRP | 0.0806
RRIRHRPPRLPRPRPRPTERPRP | 0.18
RRIRPRPPRLPRPRPRPPRPPRP | 0.682
RRIRARPPRLPRPRPRPNTSPRP | -0.0188
RRIRFRPPRLPRPRPRPQHDPRP | -0.394
RRIRDRPPRLPRPRPRPSSIPRP | 0.0533
RRIRQRPPRLPRPRPRPTNQPRP | 0.0625
RRIRARPPRLPRPRPRPHCIPRP | 0.102
RRIRLRPPRLPRPRPRPDCSPRP | 0.0574
RRIRIRPPRLPRPRPRPHREPRP | -0.0487
RRIRTRPPRLPRPRPRPEPAPRP | 0.763
RRIRWRPPRLPRPRPRPKDEPRP | 0.0784
RRIRGRPPRLPRPRPRPTLKPRP | 0.769
RRIRPRPPRLPRPRPRPYGEPRP | 0.0864
RRIRSRPPRLPRPRPRPSMLPRP | -0.3
RRIRERPPRLPRPRPRPHMKPRP | -0.286
RRIRYRPPRLPRPRPRPPFKPRP | -0.554
RRIRERPPRLPRPRPRPDWLPRP | 0.00866
RRIRCRPPRLPRPRPRPRNPPRP | 0.176
RRIRKRPPRLPRPRPRPFMKPRP | -0.157

Sequence | shrunken log2 fold change
RRIRDRPPRLPRPRPRPEDVPRP | -0.0018
RRIRCRPPRLPRPRPRPRLKPRP | 0.0782
RRIRLRPPRLPRPRPRPMNVPRP | -0.839
RRIRNRPPRLPRPRPRPGMFPRP | -0.252
RRIRNRPPRLPRPRPRPEEGPRP | 0.234
RRIRWRPPRLPRPRPRPQLQPRP | 0.229
RRIRTRPPRLPRPRPRPDWDPRP | 0.223
RRIRSRPPRLPRPRPRPYTIPRP | -0.808
RRIRYRPPRLPRPRPRPDHKPRP | -0.308
RRIRPRPPRLPRPRPRPSIFPRP | -0.284
RRIRVRPPRLPRPRPRPICWPRP | 0.0488
RRIRYRPPRLPRPRPRPQPAPRP | 0.0964
RRIRARPPRLPRPRPRPMLNPRP | -0.167
RRIRKRPPRLPRPRPRPQIMPRP | -0.103
RRIRVRPPRLPRPRPRPELKPRP | -0.341
RRIRVRPPRLPRPRPRPEMYPRP | -0.19
RRIRARPPRLPRPRPRPHSMPRP | 0.104
RRIRVRPPRLPRPRPRPWQRPRP | 0.0171
RRIRERPPRLPRPRPRPETPPRP | 0.784
RRIRIRPPRLPRPRPRPQHCPRP | -0.248
RRIRFRPPRLPRPRPRPMGLPRP | -0.00847
RRIRYRPPRLPRPRPRPHGSPRP | -0.00822
RRIRKRPPRLPRPRPRPPCMPRP | -0.0208
RRIRYRPPRLPRPRPRPIFCPRP | -0.201
RRIRYRPPRLPRPRPRPELRPRP | 0.363
